# Molecular target: actin filaments (F-actin) polymerised from chicken skeletal muscle actin (chicken) (UniProt P68139)
# Experiment: TIRF microscopy (gliding filament assay); unpatterned PEG-silane coverslips with 50 nM myosin-5; 1 μM phalloidin-labelled F-actin pre-incubated with 1, 2, 5 or 10 nM CPC for 15 min at room temperature; imaging buffer with 2 mM ATP and calmodulin; about 25°C
substance,measurement,value
capping protein complex (CPC): two CapZAB capping protein heterodimers covalently attached through a linker complex (from UniProt P47753 1-286; P47757-2 1-272),median time to rupture of paired filament complexes under myosin-5 tension,26 to 29 s
